From US20260045319A1 (UNIVERSITY COURT OF THE UNIVERSITY OF ST ANDREWS, published 2026) come the findings set out here.

This data set concerns the molecule itself. Nature of the data set: size exclusion chromatography on a column calibrated with protein standards; self-association. (In general: Size exclusion chromatography separates by hydrodynamic size, large species first.)

B1: Dsg407 from Cyanophage Syn10 GenBank: AGH56623.1 (enzyme)
chain: MKIESVAIVGGGSSGWMTAAALSKLCPQLEIALIEDPNIKTVGVGESTLGHFNKFLHLLDLKDEDWMPACNATYKNSIRFTNFREGKGEVFEYPFGPSLDVSFFSQTDGINTWGKLANKYPEDFPPETFARFVNSNTYLAEHNRLTRNKDNKIPNFNFDWDTAYHIDAELFGQYLKEKIALPNGVKHIQGKVTGYQKESPNNHNFKYIILDQETAIFADLYIDCTGFKSLLLGEFMGEAFSPFSKKLANDKAMATRIPYENREEEMHNVTDCHAMKNGWVWNIPLWNRIGTGYCYSSRFVSKDDAEAEFREHLGERGKDAKIFHIDIGHGKRTRAWVNNCVGIGLSYGFIEPLESTGLLTTHENIENLVYLINQRDGYVTQAERDGFNYTCDHQIDSFSDFVAMHYAYSMRTDTPYWKWCTQMCNYMPESMGPHRQKQSTWQDLSTDTIGLNTWHINHNGISFIIAGHGLRPQSYDKLSEVLLKRNNESDYYYEDIRKDWLKHYESMVEYVKTLPTHYEFLRDEIYGSAE
notes: also called hypothetical protein CPUG_00131; viral halogenase Dsg407
As to B1, the binding result is on record as “binds”.
